Assay results: paper PMC12443421

Experiments:
[1] = target: T1, KDM5A-K152E (UniProt P29375 1-801, K152E); experiment: EMSA; Nucleosome EMSA: 100 nM nucleosome, 50 mM HEPES pH 7.5, 50 mM KCl, 1 mM BME, 0.01% Tween-20, 0.01% BSA, 5% sucrose, 1 h on ice, gel at 4 C; DNA EMSA: 100 nM DNA, TE with 10% glycerol, gel at 4 C; settings: protein: recombinant; tags: 6xHis removed by TEV; blunt
T1 sequence: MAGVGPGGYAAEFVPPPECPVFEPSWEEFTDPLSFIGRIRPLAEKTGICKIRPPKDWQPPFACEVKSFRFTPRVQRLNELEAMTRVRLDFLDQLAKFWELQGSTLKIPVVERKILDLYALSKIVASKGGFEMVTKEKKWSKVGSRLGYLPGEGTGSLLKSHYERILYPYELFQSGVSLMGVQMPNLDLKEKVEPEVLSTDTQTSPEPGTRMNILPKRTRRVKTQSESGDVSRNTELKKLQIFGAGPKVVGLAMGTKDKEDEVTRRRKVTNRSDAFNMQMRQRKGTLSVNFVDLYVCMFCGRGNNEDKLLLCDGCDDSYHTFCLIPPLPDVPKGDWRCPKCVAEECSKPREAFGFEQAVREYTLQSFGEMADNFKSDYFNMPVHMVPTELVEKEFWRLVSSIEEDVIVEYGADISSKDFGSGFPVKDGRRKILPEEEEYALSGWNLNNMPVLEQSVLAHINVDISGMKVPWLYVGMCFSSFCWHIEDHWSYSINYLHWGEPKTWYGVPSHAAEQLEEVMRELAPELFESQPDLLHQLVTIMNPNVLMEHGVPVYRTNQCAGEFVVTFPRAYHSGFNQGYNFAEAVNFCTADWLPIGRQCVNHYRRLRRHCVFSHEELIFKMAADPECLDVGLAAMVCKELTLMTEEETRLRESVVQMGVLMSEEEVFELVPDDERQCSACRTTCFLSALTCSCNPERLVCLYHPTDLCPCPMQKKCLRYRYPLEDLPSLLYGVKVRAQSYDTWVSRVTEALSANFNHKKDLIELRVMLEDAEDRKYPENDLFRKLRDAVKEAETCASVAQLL

[2] = target: T2, KDM5A-MutR (UniProt P29375 1-801, R210A;R217A;R219A;R220A;R232A;R264A;R265A;R266A;R271A;R280A;R282A); experiment: as above; settings: protein: recombinant; tags: 6xHis removed by TEV; blunt
T2 sequence: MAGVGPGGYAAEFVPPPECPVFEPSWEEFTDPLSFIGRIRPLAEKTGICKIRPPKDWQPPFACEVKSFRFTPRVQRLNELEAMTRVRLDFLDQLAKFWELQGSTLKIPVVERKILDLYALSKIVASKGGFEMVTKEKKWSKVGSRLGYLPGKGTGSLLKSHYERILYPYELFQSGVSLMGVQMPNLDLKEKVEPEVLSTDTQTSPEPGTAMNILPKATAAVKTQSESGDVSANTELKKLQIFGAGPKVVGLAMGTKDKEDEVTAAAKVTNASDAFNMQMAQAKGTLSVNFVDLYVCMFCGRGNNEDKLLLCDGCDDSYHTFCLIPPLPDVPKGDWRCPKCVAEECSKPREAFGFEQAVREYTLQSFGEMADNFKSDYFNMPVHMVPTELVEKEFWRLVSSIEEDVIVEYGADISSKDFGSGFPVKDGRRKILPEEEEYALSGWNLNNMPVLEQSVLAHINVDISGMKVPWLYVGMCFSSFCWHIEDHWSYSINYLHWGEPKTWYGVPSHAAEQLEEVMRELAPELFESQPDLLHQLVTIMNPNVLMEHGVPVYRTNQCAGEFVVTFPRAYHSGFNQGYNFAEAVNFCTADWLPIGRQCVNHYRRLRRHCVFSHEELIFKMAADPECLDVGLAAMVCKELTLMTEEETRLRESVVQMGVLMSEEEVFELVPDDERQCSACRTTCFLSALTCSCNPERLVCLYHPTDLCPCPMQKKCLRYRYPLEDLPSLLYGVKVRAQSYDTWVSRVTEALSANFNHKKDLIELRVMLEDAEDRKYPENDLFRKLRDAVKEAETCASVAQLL

B1: ARID-C1 (dsDNA)
DNA 1: GGGCTCCCGCCCCACGAAAAG
DNA 2: CTTTTCGTGGGGCGGGAGCCC
B1 was tested, and the binding signal [1] was ~3 fold lower affinity than KDM5A-CAT and the binding signal [2] was ~3 fold lower affinity than KDM5A-CAT.
